Results from article PMC12443421 (2025).

What was measured:
[1] = biological target: wild-type unmodified 147 bp nucleosome (nucleosome core particle) (human, UniProt P04908 1-130; P62807 1-126; Q71DI3 1-136; P62805 1-103)
[2] = biological target: wild-type 185 bp nucleosome (with symmetric flanking DNA) (human, UniProt P04908 1-130; P62807 1-126; Q71DI3 1-136; P62805 1-103)

Kd [1]: 4 µM
Kd [2]: 3 µM
B1: KDM5A^CAT (lysine demethylase 5A, residues 1-801) (domain or fragment)
chain: MAGVGPGGYAAEFVPPPECPVFEPSWEEFTDPLSFIGRIRPLAEKTGICKIRPPKDWQPPFACEVKSFRFTPRVQRLNELEAMTRVRLDFLDQLAKFWELQGSTLKIPVVERKILDLYALSKIVASKGGFEMVTKEKKWSKVGSRLGYLPGKGTGSLLKSHYERILYPYELFQSGVSLMGVQMPNLDLKEKVEPEVLSTDTQTSPEPGTRMNILPKRTRRVKTQSESGDVSRNTELKKLQIFGAGPKVVGLAMGTKDKEDEVTRRRKVTNRSDAFNMQMRQRKGTLSVNFVDLYVCMFCGRGNNEDKLLLCDGCDDSYHTFCLIPPLPDVPKGDWRCPKCVAEECSKPREAFGFEQAVREYTLQSFGEMADNFKSDYFNMPVHMVPTELVEKEFWRLVSSIEEDVIVEYGADISSKDFGSGFPVKDGRRKILPEEEEYALSGWNLNNMPVLEQSVLAHINVDISGMKVPWLYVGMCFSSFCWHIEDHWSYSINYLHWGEPKTWYGVPSHAAEQLEEVMRELAPELFESQPDLLHQLVTIMNPNVLMEHGVPVYRTNQCAGEFVVTFPRAYHSGFNQGYNFAEAVNFCTADWLPIGRQCVNHYRRLRRHCVFSHEELIFKMAADPECLDVGLAAMVCKELTLMTEEETRLRESVVQMGVLMSEEEVFELVPDDERQCSACRTTCFLSALTCSCNPERLVCLYHPTDLCPCPMQKKCLRYRYPLEDLPSLLYGVKVRAQSYDTWVSRVTEALSANFNHKKDLIELRVMLEDAEDRKYPENDLFRKLRDAVKEAETCASVAQLL
